Key:
[1] = biological target: equine LH/chorionic gonadotropin receptor from pVSVG-eLH/CGR (pCORON1000 SP VSV-G), in HEK 293 cells (equine)
[2] = biological target: rat LH/chorionic gonadotropin receptor (rLH/CGR), in CHO-K1 cells (rat) (UniProt P16235)
[3] = biological target: rat FSH receptor (rFSHR), in CHO-K1 cells (rat) (UniProt P20395)
[4] = biological target: equine LH/chorionic gonadotropin receptor (eLH/CGR), in CHO-K1 cells (equine)

UniProt P20395, sequence (P20395 18-692): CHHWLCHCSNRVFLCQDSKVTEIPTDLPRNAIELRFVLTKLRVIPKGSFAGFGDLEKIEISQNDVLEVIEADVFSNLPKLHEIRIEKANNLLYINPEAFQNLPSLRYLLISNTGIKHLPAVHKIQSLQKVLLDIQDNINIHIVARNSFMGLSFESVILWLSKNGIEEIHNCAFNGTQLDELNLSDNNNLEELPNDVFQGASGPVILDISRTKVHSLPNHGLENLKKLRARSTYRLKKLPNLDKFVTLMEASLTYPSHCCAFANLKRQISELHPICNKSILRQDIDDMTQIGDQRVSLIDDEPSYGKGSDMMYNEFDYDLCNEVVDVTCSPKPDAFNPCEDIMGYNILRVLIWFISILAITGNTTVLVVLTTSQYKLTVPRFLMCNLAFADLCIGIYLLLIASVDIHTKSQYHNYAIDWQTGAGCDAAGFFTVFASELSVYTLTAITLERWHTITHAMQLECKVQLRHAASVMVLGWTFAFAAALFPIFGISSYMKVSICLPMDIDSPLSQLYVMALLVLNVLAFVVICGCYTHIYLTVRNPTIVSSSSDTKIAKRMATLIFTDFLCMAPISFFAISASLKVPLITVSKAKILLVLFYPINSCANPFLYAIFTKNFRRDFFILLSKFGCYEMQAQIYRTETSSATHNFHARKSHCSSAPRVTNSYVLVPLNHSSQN
UniProt P16235, sequence (P16235 27-700): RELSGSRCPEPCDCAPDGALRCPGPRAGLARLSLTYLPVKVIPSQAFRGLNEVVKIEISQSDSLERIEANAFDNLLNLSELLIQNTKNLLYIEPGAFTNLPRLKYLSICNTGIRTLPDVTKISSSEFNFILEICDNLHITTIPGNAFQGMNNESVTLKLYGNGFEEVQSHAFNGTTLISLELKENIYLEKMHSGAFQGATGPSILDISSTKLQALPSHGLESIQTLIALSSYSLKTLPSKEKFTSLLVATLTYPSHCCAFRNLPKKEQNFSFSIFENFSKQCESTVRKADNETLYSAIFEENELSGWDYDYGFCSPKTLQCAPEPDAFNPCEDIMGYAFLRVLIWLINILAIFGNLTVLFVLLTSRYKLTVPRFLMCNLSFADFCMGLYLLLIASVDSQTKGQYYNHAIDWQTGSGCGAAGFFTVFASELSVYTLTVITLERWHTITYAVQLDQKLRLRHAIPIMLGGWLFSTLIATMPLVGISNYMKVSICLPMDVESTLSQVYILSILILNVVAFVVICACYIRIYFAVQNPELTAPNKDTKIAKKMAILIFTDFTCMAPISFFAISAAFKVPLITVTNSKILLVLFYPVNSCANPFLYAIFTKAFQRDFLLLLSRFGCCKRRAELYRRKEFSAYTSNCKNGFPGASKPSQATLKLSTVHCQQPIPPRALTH

single-chain recombinant equine chorionic gonadotropin β/α (rec-eCG β/α) (from UniProt P08751 21-169) (ligand)
pERK1/2 activation (HTRF) in HEK 293 cells expressing eLH/CGR, 50 and 250 ng/mL rec-eCG, 0 to 30 min, fold over basal activity [1]: 7.8 fold
cAMP production (HTRF) in CHO-K1 cells expressing rLH/CGR, 30 min with rec-eCG: EC50 [2]: 0.03 ng/mL
cAMP production (HTRF) in CHO-K1 cells expressing rFSHR, 30 min with rec-eCG: EC50 [3]: 0.1 ng/mL
cAMP production (HTRF) in CHO-K1 cells expressing eLH/CGR, 30 min with rec-eCG: EC50 [4]: 0.2 ng/mL

Reference: paper PMC11853024
